Results published in US20240368285A1 (HEFEI TG IMMUNOPHARMA, published 2024).

T1: MICA on human tumor cells (A-375, A549, HCT-15, MDA-MB-231) (human, UniProt Q29983 24-383)
T1 construct: whole, on cells
T1 sequence (looked up): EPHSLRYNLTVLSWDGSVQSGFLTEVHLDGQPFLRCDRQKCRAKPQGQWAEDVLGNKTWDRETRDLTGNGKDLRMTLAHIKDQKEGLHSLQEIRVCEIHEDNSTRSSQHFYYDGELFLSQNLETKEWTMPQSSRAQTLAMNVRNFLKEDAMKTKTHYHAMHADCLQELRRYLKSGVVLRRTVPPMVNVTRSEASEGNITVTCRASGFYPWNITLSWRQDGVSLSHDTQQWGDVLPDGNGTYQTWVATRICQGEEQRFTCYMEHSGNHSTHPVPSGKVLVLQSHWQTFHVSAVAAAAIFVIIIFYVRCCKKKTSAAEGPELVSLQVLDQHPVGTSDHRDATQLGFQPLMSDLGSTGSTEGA


Legend:
MICA002α3-Fc = target: T2, MICA002α3-Fc (human); experiment: ELISA on coated MICA*002 α3-Fc (1 µg/ml), HRP anti-human Fab secondary, OD450
T2 construct: Produced in the Applicant's laboratory; also called MICA*002-Fc; domain α3 of MICA-002 Fc fusion protein
T2 sequence (chain, as listed by the source limits assumed): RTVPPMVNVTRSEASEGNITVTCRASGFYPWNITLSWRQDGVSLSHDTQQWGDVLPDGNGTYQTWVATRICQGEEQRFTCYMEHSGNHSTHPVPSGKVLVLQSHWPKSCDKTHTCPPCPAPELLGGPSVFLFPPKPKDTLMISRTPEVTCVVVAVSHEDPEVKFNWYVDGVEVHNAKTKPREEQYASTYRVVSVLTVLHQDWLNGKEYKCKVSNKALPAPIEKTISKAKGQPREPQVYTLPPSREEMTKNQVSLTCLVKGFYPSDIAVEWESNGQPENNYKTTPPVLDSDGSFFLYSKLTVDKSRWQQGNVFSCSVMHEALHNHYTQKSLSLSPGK

MICA005α3-Fc = target: T3, MICA005α3-Fc (human); experiment: ELISA on coated MICA*005 α3-Fc (1 µg/ml), HRP anti-human Fab secondary, OD450
T3 construct: also called MICA*005-Fc; domain α3 of MICA-005 Fc fusion protein
T3 sequence (chain, as listed by the source limits assumed): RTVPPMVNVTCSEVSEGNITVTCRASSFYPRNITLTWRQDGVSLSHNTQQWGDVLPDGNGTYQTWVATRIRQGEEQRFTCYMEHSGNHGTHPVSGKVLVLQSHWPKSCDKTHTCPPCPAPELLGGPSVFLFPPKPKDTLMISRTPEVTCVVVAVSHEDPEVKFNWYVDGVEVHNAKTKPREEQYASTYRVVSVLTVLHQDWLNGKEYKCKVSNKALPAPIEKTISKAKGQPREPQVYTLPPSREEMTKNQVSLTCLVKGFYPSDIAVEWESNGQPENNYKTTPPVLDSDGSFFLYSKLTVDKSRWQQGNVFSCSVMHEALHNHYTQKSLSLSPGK

MICA008α3-Fc = target: T4, MICA008α3-Fc (human); experiment: ELISA on coated MICA*008 α3-Fc (1 µg/ml), HRP anti-human Fab secondary, OD450
T4 construct: also called MICA*008-Fc; domain α3 of MICA-008 Fc fusion protein
T4 sequence (chain, as listed by the source limits assumed): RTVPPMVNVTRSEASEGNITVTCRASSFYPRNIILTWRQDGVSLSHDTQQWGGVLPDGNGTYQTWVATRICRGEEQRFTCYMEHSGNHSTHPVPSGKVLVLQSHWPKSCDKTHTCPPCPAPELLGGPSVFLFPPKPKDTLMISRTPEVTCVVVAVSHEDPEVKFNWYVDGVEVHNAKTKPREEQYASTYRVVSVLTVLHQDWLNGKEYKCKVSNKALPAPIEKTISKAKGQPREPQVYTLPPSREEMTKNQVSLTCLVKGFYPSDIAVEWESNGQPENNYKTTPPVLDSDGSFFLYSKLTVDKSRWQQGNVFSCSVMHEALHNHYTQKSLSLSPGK

MICA004α3-Fc = target: T5, MICA004α3-Fc (human); experiment: ELISA on coated MICA*004 α3-Fc (1 µg/ml), HRP anti-human Fab secondary, OD450
T5 construct: also called MICA*004-Fc; domain α3 of MICA-004 Fc fusion protein
T5 sequence (chain, as listed by the source limits assumed): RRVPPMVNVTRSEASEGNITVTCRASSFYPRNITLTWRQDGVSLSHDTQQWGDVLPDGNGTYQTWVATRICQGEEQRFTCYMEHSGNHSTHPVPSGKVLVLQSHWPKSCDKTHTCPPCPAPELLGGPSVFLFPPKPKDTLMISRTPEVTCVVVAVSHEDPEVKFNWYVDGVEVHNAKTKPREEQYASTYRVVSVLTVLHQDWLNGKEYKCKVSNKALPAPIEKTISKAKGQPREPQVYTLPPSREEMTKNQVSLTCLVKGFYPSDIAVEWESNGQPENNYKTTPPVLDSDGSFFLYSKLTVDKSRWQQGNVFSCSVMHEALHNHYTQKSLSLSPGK

MICB001α3-Fc = target: T6, MICB001α3-Fc; experiment: ELISA on coated MICB*001 α3-Fc (1 µg/ml), HRP anti-human Fab secondary, OD450
T6 construct: also called MICB*001-Fc; domain α3 of MICB-001 Fc fusion protein
T6 sequence (chain, as listed by the source limits assumed): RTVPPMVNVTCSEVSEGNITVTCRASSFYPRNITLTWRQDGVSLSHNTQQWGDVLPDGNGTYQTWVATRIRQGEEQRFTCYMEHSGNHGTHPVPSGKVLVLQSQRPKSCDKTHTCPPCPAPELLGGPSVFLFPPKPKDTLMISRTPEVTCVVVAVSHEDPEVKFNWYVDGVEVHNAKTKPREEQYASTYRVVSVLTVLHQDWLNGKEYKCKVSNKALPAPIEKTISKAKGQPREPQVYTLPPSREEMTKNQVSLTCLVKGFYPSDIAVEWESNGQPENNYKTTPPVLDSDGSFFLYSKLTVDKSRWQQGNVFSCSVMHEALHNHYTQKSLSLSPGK

MICB005α3-Fc = target: T7, MICB005α3-Fc; experiment: ELISA on coated MICB*005 α3-Fc (1 µg/ml), HRP anti-human Fab secondary, OD450
T7 construct: also called MICB*005-Fc; domain α3 of MICB-005 Fc fusion protein
T7 sequence (chain, as listed by the source limits assumed): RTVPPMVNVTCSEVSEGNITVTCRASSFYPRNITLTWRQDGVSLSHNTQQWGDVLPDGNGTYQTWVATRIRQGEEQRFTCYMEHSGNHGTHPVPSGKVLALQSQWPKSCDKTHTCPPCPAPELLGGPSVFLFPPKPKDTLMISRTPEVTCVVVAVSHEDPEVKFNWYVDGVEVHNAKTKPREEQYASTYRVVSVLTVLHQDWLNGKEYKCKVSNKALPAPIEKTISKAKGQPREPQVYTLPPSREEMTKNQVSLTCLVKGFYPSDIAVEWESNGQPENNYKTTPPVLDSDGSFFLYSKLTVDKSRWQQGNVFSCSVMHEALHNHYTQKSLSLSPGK

[1] = target: T1, MICA on human tumor cells (A-375, A549, …); experiment: flow cytometry on A-375 cells, Alexa-647 goat anti-human secondary, % binding ratio
Method: (§1) (2) Tumor cells were diluted to a density of 2×10⁶/mL with PBS and added into a 1.5 ml EP tube in a volume of 100 l/tube. 10 l/tube of goat serum was added into the EP tube; and blocking was conducted at 4° C. for 30 min. […] The tube was incubated at 4° C. for 30 min. 1 mL of PBS was added into the EP tube, and centrifugation was conducted 4° C. at a rate of 3,500 rpm for 5 min. The supernatant was removed. Then, the EP tube was washed once with the PBS, and the supernatant was removed after centrifugation. The cells were resuspended with PBS in a volume of 100 l/tube. An Alexa-647 labeled goat anti-human secondary antibody (purchased from Jackson lab) was added into the tube in a volume of 1 l/tube, and the tube was incubated in the dark at 4° C. for 30 min. The tube was washed twice with PBS, and the supernatant was removed after centrifugation. The cells were resuspended with the PBS in a volume of 200 l/tube, and detection was conducted by a flow cytometer. The results are as shown in FIG. 17A and FIG. 17B, FIG. 18A and FIG. 18B, FIG. 19A and FIG. 19B, and FIG. 20A and FIG. 20B.

[2] = target: T1, MICA on human tumor cells (A-375, A549, …); experiment: flow cytometry on A-549 cells, Alexa-647 goat anti-human secondary, % binding ratio
Method: as §1

[3] = target: T1, MICA on human tumor cells (A-375, A549, …); experiment: flow cytometry on HCT-15 cells, Alexa-647 goat anti-human secondary, % binding ratio
Method: as §1

[4] = target: T1, MICA on human tumor cells (A-375, A549, …); experiment: flow cytometry on MDA-MB-231 cells, Alexa-647 goat anti-human secondary, % binding ratio
Method: as §1

[5] = target: T1, MICA on human tumor cells (A-375, A549, …); experiment: flow cytometry competition on HCT-15 cells; competitor: Biotin-h5A1002, detected with Alexa-647 streptavidin; % binding ratio of Biotin-h5A1002
Method: HCT-15 cells were diluted to a density of 2×10⁶/mL with PBS and added into a 1.5 ml EP tube in a volume of 100 l/tube. 10 l/tube of goat serum was added into the EP tube, and blocking was conducted at 4° C. for 30 min. […] The tube was incubated at 4° C. for 30 min. A biotin-labeled affinity maturation antibody Biotin-h5A1002 (having a heavy chain sequence as set forth in SEQ ID NO: 13 and a light chain sequence as set forth in SEQ ID NO: 14) was added. The tube was incubated at 4° C. for 30 min. 1 mL of PBS was added into the EP tube, and centrifugation was conducted 4° C. at a rate of 3,500 rpm for 5 min. The supernatant was removed. The EP tube was washed once with the PBS, and the supernatant was removed after centrifugation. The cells were resuspended with PBS in a volume of 100 l/tube. An Alexa-647 labeled Streptavidin secondary antibody (purchased from Biolegend) was added into the tube in a volume of 1 l/tube, and the tube was incubated in the dark at 4° C. for 30 min. The tube was washed twice with PBS, and the supernatant was removed after centrifugation. The cells were resuspended with the PBS in a volume of 200 μl/tube, and detection was conducted by a flow cytometer.

EC50 (read off the curve) (MICA002α3-Fc) | EC50 (read off the curve) (MICA005α3-Fc) | EC50 (read off the curve) (MICA008α3-Fc) | EC50 (read off the curve) (MICA004α3-Fc) | EC50 (read off the curve) (MICB001α3-Fc) | EC50 (read off the curve) (MICB005α3-Fc) | EC50 (read off the curve) [1] | EC50 (read off the curve) [2] | EC50 (read off the curve) [3] | EC50 (read off the curve) [4] | IC50 (read off the curve) [5] | Binder
~0.07 µg/mL | ~0.2 µg/mL | ~0.1 µg/mL | ~0.04 µg/mL | ~0.05 µg/mL | ~0.04 µg/mL | ~0.7 µg/mL | ~0.7 µg/mL | ~0.3 µg/mL | ~0.7 µg/mL | ~4 µg/mL | antibody CLN-619 (Cullinan) (antibody, human IgG1, kappa, V domains shown, hIgG1 subtype) VH: QVQLVESGGGLVKPGGSLRLSCAASGFTFSNYAMSWIRQAPGKGLEWVSYISPGGDYIYYADSVKGRFTISRDNAKNSLYLQMNSLRAEDTAVYYCTTDRRHYGSYAMDYWGQGTLVTVSS VL: DIVMTQSPLSLPVTPGEPASISCRSSKSLLHSNLNTYLYWFLQKPGQSPQILIYRMSNLASGVPDRFSGSGSGTAFTLKISRVEAEDVGVYYCMQHLEYPFTFGPGTKLEIKR
~0.05 µg/mL | ~0.09 µg/mL | ~0.07 µg/mL | ~0.04 µg/mL | ~0.03 µg/mL | ~0.04 µg/mL | ~0.3 µg/mL | ~0.4 µg/mL | ~0.1 µg/mL | ~0.3 µg/mL | ~5 µg/mL | antibody 1D5V11 (Genentech) (antibody, human IgG1, kappa, V domains shown, also called homogeneous antibody 1D5V11) VH: EIQLVQSGAEVKKPGASVKVSCKASGYAFTSQNIYWVRQAPGQGLEWIGYIEPYNVVPMYNPKFKGRATLTVDKSTSTAYLELSSLRSEDTAVYYCARSGSSNFDYWGQGTLVTVSS VL: DIQLTQSPSSLSASVGDRVTITCSASSSISSHYLHWYQQKPGKSPKLLIYRTSNLASGVPSRFSGSGSGTDYTLTISSLQPEDFATYYCQQGSSLPLTFGQGTKVEIKR
